{"source": "the supplement of paper PMC7125110", "parents": {"B1": {"name": "glmS ribozyme (parent)", "chain": "AUAAAAGCGCCAGAACUACAGAAAUGUAGUUGACGAGGAGGAGGUUUAUCGAAUUUUCGGCGGAUGCCUCCAAA"}}, "settings_in_all_cases": "with glucosamine-6-phosphate", "key": {"glucosamine-6-phosphate [1]": {"variants_of": "B1", "assay": "kcat; higher = faster cleavage; RNA array", "outline": "(§1)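 A hybridised Cy3 probe tracked barcoded ribozyme variants, transcribed in situ by E. coli RNA polymerase on sequenced MiSeq chips, at 37 °C. The variants received 40 μM to 10 mM glucosamine-6-phosphate in HEPES/KCl/Mg(OAc)2 buffer. kobs came from decay fits and kcat and KM from weighted Michaelis–Menten fits.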"}, "glucosamine-6-phosphate [2]": {"variants_of": "B1", "assay": "self-cleavage kobs at 640 uM GlcN6P; higher = faster cleavage; RNA array", "outline": "as §1"}, "glucosamine-6-phosphate [3]": {"variants_of": "B1", "assay": "self-cleavage kobs at 2500 uM GlcN6P; higher = faster cleavage; RNA array", "outline": "as §1"}, "glucosamine-6-phosphate [4]": {"variants_of": "B1", "assay": "self-cleavage kobs at 10000 uM GlcN6P; higher = faster cleavage; RNA array", "outline": "as §1"}, "glucosamine-6-phosphate [5]": {"variants_of": "B1", "assay": "self-cleavage kobs at 40 uM GlcN6P; higher = faster cleavage; RNA array", "outline": "as §1"}, "glucosamine-6-phosphate [6]": {"variants_of": "B1", "assay": "self-cleavage kobs at 160 uM GlcN6P; higher = faster cleavage; RNA array", "outline": "as §1"}, "glucosamine-6-phosphate [7]": {"variants_of": "B1", "assay": "KM; higher = weaker cofactor use; RNA array", "outline": "as §1"}}, "note": "± gives the standard error. For part of these data: Variants at the floor of the assay were thinned out.", "data": [{"variant": "A6U A15G U30C", "values": [{"measurement": "kcat", "setting": "glucosamine-6-phosphate [1]", "result": "0.000345 ± 9.4e-05", "unit": "s⁻¹"}, {"measurement": "self-cleavage kobs at 640 uM GlcN6P", "setting": "glucosamine-6-phosphate [2]", "result": "5.44e-05 ± 2e-05", "unit": "s⁻¹"}, {"measurement": "self-cleavage kobs at 2500 uM GlcN6P", "setting": "glucosamine-6-phosphate [3]", "result": "0.00023 ± 6.3e-05", "unit": "s⁻¹"}, {"measurement": "self-cleavage kobs at 10000 uM GlcN6P", "setting": "glucosamine-6-phosphate [4]", "result": "0.000255 ± 5.8e-05", "unit": "s⁻¹"}]}, {"variant": "G32C G37C A48U G59C", "values": [{"measurement": "self-cleavage kobs at 40 uM GlcN6P", "setting": "glucosamine-6-phosphate [5]", "result": "< 1e-05", "unit": "s⁻¹"}]}, {"variant": "A36C G63A", "values": [{"measurement": "self-cleavage kobs at 40 uM GlcN6P", "setting": "glucosamine-6-phosphate [5]", "result": "< 1e-05", "unit": "s⁻¹"}, {"measurement": "self-cleavage kobs at 640 uM GlcN6P", "setting": "glucosamine-6-phosphate [2]", "result": "< 1e-05", "unit": "s⁻¹"}]}, {"variant": "G60C U69G", "values": [{"measurement": "self-cleavage kobs at 40 uM GlcN6P", "setting": "glucosamine-6-phosphate [5]", "result": "< 1e-05", "unit": "s⁻¹"}, {"measurement": "self-cleavage kobs at 160 uM GlcN6P", "setting": "glucosamine-6-phosphate [6]", "result": "< 1e-05", "unit": "s⁻¹"}, {"measurement": "self-cleavage kobs at 10000 uM GlcN6P", "setting": "glucosamine-6-phosphate [4]", "result": "< 1e-05", "unit": "s⁻¹"}]}, {"variant": "G43C A48U G51C G63A C71U", "values": [{"measurement": "self-cleavage kobs at 40 uM GlcN6P", "setting": "glucosamine-6-phosphate [5]", "result": "< 1e-05", "unit": "s⁻¹"}, {"measurement": "self-cleavage kobs at 10000 uM GlcN6P", "setting": "glucosamine-6-phosphate [4]", "result": "< 1e-05", "unit": "s⁻¹"}]}, {"variant": "U31C U49G", "values": [{"measurement": "kcat", "setting": "glucosamine-6-phosphate [1]", "result": "7.25e-05 ± 2.8e-06", "unit": "s⁻¹"}, {"measurement": "KM", "setting": "glucosamine-6-phosphate [7]", "result": "1610 ± 200", "unit": "µM"}, {"measurement": "self-cleavage kobs at 640 uM GlcN6P", "setting": "glucosamine-6-phosphate [2]", "result": "2.25e-05 ± 9.3e-06", "unit": "s⁻¹"}, {"measurement": "self-cleavage kobs at 2500 uM GlcN6P", "setting": "glucosamine-6-phosphate [3]", "result": "4.27e-05 ± 7.7e-06", "unit": "s⁻¹"}, {"measurement": "self-cleavage kobs at 10000 uM GlcN6P", "setting": "glucosamine-6-phosphate [4]", "result": "6.33e-05 ± 9.1e-06", "unit": "s⁻¹"}]}, {"variant": "C19U G38A", "values": [{"measurement": "self-cleavage kobs at 40 uM GlcN6P", "setting": "glucosamine-6-phosphate [5]", "result": "< 1e-05", "unit": "s⁻¹"}]}, {"variant": "C50A C58G", "values": [{"measurement": "kcat", "setting": "glucosamine-6-phosphate [1]", "result": "< 1e-05", "unit": "s⁻¹"}, {"measurement": "self-cleavage kobs at 10000 uM GlcN6P", "setting": "glucosamine-6-phosphate [4]", "result": "< 1e-05", "unit": "s⁻¹"}]}, {"variant": "G66U C68A", "values": [{"measurement": "kcat", "setting": "glucosamine-6-phosphate [1]", "result": "6.39e-05 ± 1.2e-05", "unit": "s⁻¹"}, {"measurement": "self-cleavage kobs at 160 uM GlcN6P", "setting": "glucosamine-6-phosphate [6]", "result": "3.61e-05 ± 1.6e-05", "unit": "s⁻¹"}, {"measurement": "self-cleavage kobs at 640 uM GlcN6P", "setting": "glucosamine-6-phosphate [2]", "result": "9.21e-05 ± 2.2e-05", "unit": "s⁻¹"}, {"measurement": "self-cleavage kobs at 2500 uM GlcN6P", "setting": "glucosamine-6-phosphate [3]", "result": "5.77e-05 ± 8.7e-06", "unit": "s⁻¹"}]}, {"variant": "A12U A36U C50A U69G", "values": [{"measurement": "self-cleavage kobs at 40 uM GlcN6P", "setting": "glucosamine-6-phosphate [5]", "result": "9.31e-05 ± 2.3e-05", "unit": "s⁻¹"}, {"measurement": "self-cleavage kobs at 2500 uM GlcN6P", "setting": "glucosamine-6-phosphate [3]", "result": "0.000241 ± 5.7e-05", "unit": "s⁻¹"}, {"measurement": "self-cleavage kobs at 10000 uM GlcN6P", "setting": "glucosamine-6-phosphate [4]", "result": "6.54e-05 ± 1.6e-05", "unit": "s⁻¹"}]}, {"variant": "G9U A36C", "values": [{"measurement": "self-cleavage kobs at 40 uM GlcN6P", "setting": "glucosamine-6-phosphate [5]", "result": "< 1e-05", "unit": "s⁻¹"}, {"measurement": "self-cleavage kobs at 640 uM GlcN6P", "setting": "glucosamine-6-phosphate [2]", "result": "< 1e-05", "unit": "s⁻¹"}, {"measurement": "self-cleavage kobs at 2500 uM GlcN6P", "setting": "glucosamine-6-phosphate [3]", "result": "< 1e-05", "unit": "s⁻¹"}, {"measurement": "self-cleavage kobs at 10000 uM GlcN6P", "setting": "glucosamine-6-phosphate [4]", "result": "< 1e-05", "unit": "s⁻¹"}]}, {"variant": "G29A C71G", "values": [{"measurement": "kcat", "setting": "glucosamine-6-phosphate [1]", "result": "0.00019 ± 3.4e-05", "unit": "s⁻¹"}, {"measurement": "self-cleavage kobs at 640 uM GlcN6P", "setting": "glucosamine-6-phosphate [2]", "result": "9.26e-05 ± 2.3e-05", "unit": "s⁻¹"}, {"measurement": "self-cleavage kobs at 2500 uM GlcN6P", "setting": "glucosamine-6-phosphate [3]", "result": "0.000117 ± 2.3e-05", "unit": "s⁻¹"}, {"measurement": "self-cleavage kobs at 10000 uM GlcN6P", "setting": "glucosamine-6-phosphate [4]", "result": "0.000204 ± 3.3e-05", "unit": "s⁻¹"}]}, {"variant": "U30A U49A C68A C71G", "values": [{"measurement": "kcat", "setting": "glucosamine-6-phosphate [1]", "result": "4.8e-05 ± 2.1e-05", "unit": "s⁻¹"}, {"measurement": "self-cleavage kobs at 640 uM GlcN6P", "setting": "glucosamine-6-phosphate [2]", "result": "7.12e-05 ± 2.8e-05", "unit": "s⁻¹"}]}, {"variant": "A39U A42U", "values": [{"measurement": "kcat", "setting": "glucosamine-6-phosphate [1]", "result": "0.00653 ± 0.0017", "unit": "s⁻¹"}, {"measurement": "KM", "setting": "glucosamine-6-phosphate [7]", "result": "1400 ± 530", "unit": "µM"}, {"measurement": "self-cleavage kobs at 40 uM GlcN6P", "setting": "glucosamine-6-phosphate [5]", "result": "0.000312 ± 7.2e-05", "unit": "s⁻¹"}, {"measurement": "self-cleavage kobs at 160 uM GlcN6P", "setting": "glucosamine-6-phosphate [6]", "result": "0.000582 ± 8.8e-05", "unit": "s⁻¹"}, {"measurement": "self-cleavage kobs at 640 uM GlcN6P", "setting": "glucosamine-6-phosphate [2]", "result": "0.00223 ± 0.00042", "unit": "s⁻¹"}, {"measurement": "self-cleavage kobs at 2500 uM GlcN6P", "setting": "glucosamine-6-phosphate [3]", "result": "0.00602 ± 0.0014", "unit": "s⁻¹"}, {"measurement": "self-cleavage kobs at 10000 uM GlcN6P", "setting": "glucosamine-6-phosphate [4]", "result": "0.00529 ± 0.00096", "unit": "s⁻¹"}]}, {"variant": "G29C U65A", "values": [{"measurement": "kcat", "setting": "glucosamine-6-phosphate [1]", "result": "0.000197 ± 2.5e-05", "unit": "s⁻¹"}, {"measurement": "KM", "setting": "glucosamine-6-phosphate [7]", "result": "2100 ± 780", "unit": "µM"}, {"measurement": "self-cleavage kobs at 640 uM GlcN6P", "setting": "glucosamine-6-phosphate [2]", "result": "3.62e-05 ± 1.2e-05", "unit": "s⁻¹"}, {"measurement": "self-cleavage kobs at 2500 uM GlcN6P", "setting": "glucosamine-6-phosphate [3]", "result": "0.00013 ± 1.8e-05", "unit": "s⁻¹"}, {"measurement": "self-cleavage kobs at 10000 uM GlcN6P", "setting": "glucosamine-6-phosphate [4]", "result": "0.000157 ± 1.5e-05", "unit": "s⁻¹"}]}, {"variant": "C8G U55A", "values": [{"measurement": "self-cleavage kobs at 40 uM GlcN6P", "setting": "glucosamine-6-phosphate [5]", "result": "< 1e-05", "unit": "s⁻¹"}, {"measurement": "self-cleavage kobs at 640 uM GlcN6P", "setting": "glucosamine-6-phosphate [2]", "result": "< 1e-05", "unit": "s⁻¹"}, {"measurement": "self-cleavage kobs at 2500 uM GlcN6P", "setting": "glucosamine-6-phosphate [3]", "result": "< 1e-05", "unit": "s⁻¹"}, {"measurement": "self-cleavage kobs at 10000 uM GlcN6P", "setting": "glucosamine-6-phosphate [4]", "result": "< 1e-05", "unit": "s⁻¹"}]}, {"variant": "G43A G51U G63C A64G", "values": [{"measurement": "self-cleavage kobs at 40 uM GlcN6P", "setting": "glucosamine-6-phosphate [5]", "result": "< 1e-05", "unit": "s⁻¹"}, {"measurement": "self-cleavage kobs at 640 uM GlcN6P", "setting": "glucosamine-6-phosphate [2]", "result": "< 1e-05", "unit": "s⁻¹"}, {"measurement": "self-cleavage kobs at 2500 uM GlcN6P", "setting": "glucosamine-6-phosphate [3]", "result": "< 1e-05", "unit": "s⁻¹"}]}, {"variant": "C8U A52U C58U A64C C70U", "values": [{"measurement": "self-cleavage kobs at 40 uM GlcN6P", "setting": "glucosamine-6-phosphate [5]", "result": "< 1e-05", "unit": "s⁻¹"}, {"measurement": "self-cleavage kobs at 160 uM GlcN6P", "setting": "glucosamine-6-phosphate [6]", "result": "< 1e-05", "unit": "s⁻¹"}, {"measurement": "self-cleavage kobs at 2500 uM GlcN6P", "setting": "glucosamine-6-phosphate [3]", "result": "< 1e-05", "unit": "s⁻¹"}]}, {"variant": "C8A G29A G51U", "values": [{"measurement": "self-cleavage kobs at 40 uM GlcN6P", "setting": "glucosamine-6-phosphate [5]", "result": "< 1e-05", "unit": "s⁻¹"}, {"measurement": "self-cleavage kobs at 10000 uM GlcN6P", "setting": "glucosamine-6-phosphate [4]", "result": "< 1e-05", "unit": "s⁻¹"}]}, {"variant": "G7C A42G", "values": [{"measurement": "self-cleavage kobs at 40 uM GlcN6P", "setting": "glucosamine-6-phosphate [5]", "result": "< 1e-05", "unit": "s⁻¹"}, {"measurement": "self-cleavage kobs at 160 uM GlcN6P", "setting": "glucosamine-6-phosphate [6]", "result": "< 1e-05", "unit": "s⁻¹"}, {"measurement": "self-cleavage kobs at 640 uM GlcN6P", "setting": "glucosamine-6-phosphate [2]", "result": "< 1e-05", "unit": "s⁻¹"}, {"measurement": "self-cleavage kobs at 2500 uM GlcN6P", "setting": "glucosamine-6-phosphate [3]", "result": "< 1e-05", "unit": "s⁻¹"}, {"measurement": "self-cleavage kobs at 10000 uM GlcN6P", "setting": "glucosamine-6-phosphate [4]", "result": "< 1e-05", "unit": "s⁻¹"}]}, {"variant": "G35C C71G", "values": [{"measurement": "self-cleavage kobs at 40 uM GlcN6P", "setting": "glucosamine-6-phosphate [5]", "result": "< 1e-05", "unit": "s⁻¹"}, {"measurement": "self-cleavage kobs at 160 uM GlcN6P", "setting": "glucosamine-6-phosphate [6]", "result": "< 1e-05", "unit": "s⁻¹"}, {"measurement": "self-cleavage kobs at 640 uM GlcN6P", "setting": "glucosamine-6-phosphate [2]", "result": "< 1e-05", "unit": "s⁻¹"}]}]}
